The text below walks through data of patent US20260008815A1, “CYCLIC PEPTIDE OR SALT THEREOF, AND USES THEREOF” (FUJIFILM Corporation, priority 2023, published 2026).

Numbered stars: 1 amine (or outer) side, 2 acyl side, 3 side chain; on linkers, the order of the positions; unused ones are H or OH. Bridge positions count the residues as written; N and C are the ends. Ends that are not written are not given here. acetyl = acetyl (haloacetyl before ring closure) on the side-chain amine, O=C(C[*:1])[*:2]; COCH2 = acetyl group that carries the bridge

The target of this test is T1, Recombinant Human FGFR2 alpha (IIIc) Fc Chimera Protein (Homo sapiens, UniProt P21802).
T1 construct: Fc (chimera); purchased R&D systems 712-FR-050
T1 sequence (P21802 with tags, fused parts or gaps limits assumed): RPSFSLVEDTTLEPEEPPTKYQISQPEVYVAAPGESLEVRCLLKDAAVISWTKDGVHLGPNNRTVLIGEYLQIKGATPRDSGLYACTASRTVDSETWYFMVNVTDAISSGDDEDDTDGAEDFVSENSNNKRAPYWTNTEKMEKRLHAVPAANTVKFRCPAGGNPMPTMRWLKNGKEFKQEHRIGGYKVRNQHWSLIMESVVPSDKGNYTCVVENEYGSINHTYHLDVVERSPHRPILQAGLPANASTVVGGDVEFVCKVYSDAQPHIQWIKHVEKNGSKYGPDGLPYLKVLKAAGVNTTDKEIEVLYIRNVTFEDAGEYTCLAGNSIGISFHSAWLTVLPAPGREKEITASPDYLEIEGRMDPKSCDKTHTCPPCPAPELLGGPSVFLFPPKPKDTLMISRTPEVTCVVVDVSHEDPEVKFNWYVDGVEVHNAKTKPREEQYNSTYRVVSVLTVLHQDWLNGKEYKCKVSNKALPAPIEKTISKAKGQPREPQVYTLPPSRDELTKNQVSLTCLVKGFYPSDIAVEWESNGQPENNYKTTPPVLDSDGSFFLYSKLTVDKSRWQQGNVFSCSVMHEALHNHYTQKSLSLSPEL
Description: ELISA binding affinity of enzymatically synthesized peptide to FGFR. The conditions noted are these: ELISA luminescence signal at 10 nmol/L peptide, SEQ ID NO: 47 at 10 nmol/L standardized to 1; enzyme synthesis product. The protocol:
The binding affinity of the peptide to FGFR was evaluated using an ELISA method.
The binding affinity of the enzymatically synthesized peptide to FGFR was measured by evaluating the amount of the peptide bound to FGFR by ELISA.
First, 5 ng of Recombinant Human FGFR2 alpha (IIIc) Fc Chimera Protein (R&D systems, 712-FR-050) was immobilized in each well of a 96-well plate, and blocked with Pierce Protein-Free (PBS) Blocking Buffer (Thermo, 37572), and a peptide diluted with Can Get Signal Immunoreaction Enhancer Solution I (TOYOBO, NKB-101) was then added and reacted at room temperature for 3 hours. After washing with 0.05% Tween 20-containing phosphate buffered saline (PBS), an anti-Myc antibody (Cell Signaling, 14038S) diluted with Can Get Signal Immunoreaction Enhancer Solution II (TOYOBO, NKB-101) was added and reacted at room temperature for 2 hours. After washing with 0.05% Tween 20-containing PBS, SuperSignal ELISA Femto Substrate (Thermo, 37075) was added, and the luminescence amount was measured. The dose-response relationship was calculated from using the difference between the luminescence amount in the well in which FGFR was immobilized and the luminescence amount in the well in which FGFR was not immobilized, and the concentration of the peptide at the time of reaction, and the binding affinity to FGFR was evaluated according to the following evaluation criteria. The evaluation result preferably satisfies the evaluation criteria A, B, or C.
In a case where a value of a luminescence signal emitted by the cyclic peptide set forth in SEQ ID NO: 47 at a reaction concentration of 10 nmol/L is standardized to 1, evaluation criteria of the luminescence signal value emitted by the cyclic peptide at a reaction concentration of 10 nmol/L is as follows. • A: 0.7 or more • B: 0.5 or more and less than 0.7 • C: 0.1 or more and less than 0.5 • D: less than 0.1.
(In general: ELISA stands for enzyme-linked immunosorbent assay.)
With “159 (YCNENYLDPEQYQYFIYFK(COCH2)Y; thioether 2-19 (inferred)) [compound 159]”, the “Evaluation result of binding affinity to FGFR” value (from here on “Evaluation result”) is given as “A (0.7 or more)”.
The entry for “137 (PCEENYLDPEQYQYFIYFK(COCH2)Y; thioether 2-19 (inferred)) [compound 137]” is “A (0.7 or more)”; for “226 (YCEENYLDYEQYQYFIYFK(COCH2)Y; thioether 2-19 (inferred)) [compound 226]” it is “A (0.7 or more)”.
The entry for “314 (YCEENYLDPEQYQYFIYFK(COCH2)N; thioether 2-19 (inferred)) [compound 314]” is “A (0.7 or more)”.
Regarding “367 (HCQLEYLYTYVLK(COCH2)I; thioether 2-13) [compound 367]”, the “Evaluation result” value was “C (0.1 or more and less than 0.5)”.
As for “303 (YCEENYLDPEQYQYFIEFK(COCH2)Y; thioether 2-19 (inferred)) [compound 303]”, the “Evaluation result” value was “A (0.7 or more)”.
“328 (YCEENYLAPEQYQYFIYFK(COCH2)Y; thioether 2-19 (inferred)) [compound 328]”: the “Evaluation result” value is reported as “A (0.7 or more)”.
Take “261 (YCEENYLDPEQYFYFIYFK(COCH2)Y; thioether 2-19) [compound 261]”: the “Evaluation result” value is “B (0.5 or more and less than 0.7)”.
The entry for “264 (YCEENYLDPEQYNYFIYFK(COCH2)Y; thioether 2-19) [compound 264]” is “A (0.7 or more)”; for “156 (YCFENYLDPEQYQYFIYFK(COCH2)Y; thioether 2-19 (inferred)) [compound 156]” it is “A (0.7 or more)”; for “165 (YCHENYLDPEQYQYFIYFK(COCH2)Y; thioether 2-19 (inferred)) [compound 165]” it is “A (0.7 or more)”.
For “106 (QCPQNFINPVQHRYFQHYK(COCH2)N; thioether 2-19 (inferred)) [compound 106]” the value was “A (0.7 or more)”; for “419 (DCHTREDWQIHHLYQLLYQLK(COCH2)Y; thioether 2-21 via acetyl) [compound 419]”, “C (0.1 or more and less than 0.5)”.
As to “150 (HCEENYLDPEQYQYFIYFK(COCH2)Y; thioether 2-19 (inferred)) [compound 150]”, the “Evaluation result” value is reported as “A (0.7 or more)”.
The entry for “161 (YCSENYLDPEQYQYFIYFK(COCH2)Y; thioether 2-19 (inferred)) [compound 161]” is “A (0.7 or more)”; for “339 (YCEENYKDPEQYQYFIYFK(COCH2)Y; thioether 2-19 (inferred)) [compound 339]” it is “A (0.7 or more)”.
For “109 (DCFINELQYFYIQQYK(COCH2)K; thioether 2-16 (inferred)) [compound 109]” the value was “B (0.5 or more and less than 0.7)”; for “255 (YCEENYLDPEQWQYFIYFK(COCH2)Y; thioether 2-19 (inferred)) [compound 255]”, “A (0.7 or more)”.
The entry for “352 (YCEENYLMPEQYQYFIYFK(COCH2)Y; thioether 2-19) [compound 352]” is “A (0.7 or more)”; for “244 (YCEENYLDPNQYQYFIYFK(COCH2)Y; thioether 2-19 (inferred)) [compound 244]” it is “A (0.7 or more)”; for “64 (KCPQNFINPVQWRAFQHYK(COCH2)N; thioether 2-19 (inferred)) [compound 64]” it is “B (0.5 or more and less than 0.7)”.
For “400 (VCQQDNYFYPQQWFFFVHYK(COCH2)H; thioether 2-20 (inferred)) [compound 400]”, the “Evaluation result” value is “A (0.7 or more)”.
For “118 (LCPVPQQTDYLRWYQIIHK(COCH2)Q; thioether 2-19 (inferred)) [compound 118]” the value was “C (0.1 or more and less than 0.5)”.
For “297 (YCEENYLDPEQYQYFIWFK(COCH2)Y; thioether 2-19) [compound 297]” the value was “A (0.7 or more)”; for “340 (YCEENYLKPEQYQYFIYFK(COCH2)Y; thioether 2-19) [compound 340]”, “C (0.1 or more and less than 0.5)”; for “302 (YCEENYLDPEQYQYFIDFK(COCH2)Y; thioether 2-19 (inferred)) [compound 302]”, “A (0.7 or more)”.
The entry for “162 (YCTENYLDPEQYQYFIYFK(COCH2)Y; thioether 2-19 (inferred)) [compound 162]” is “A (0.7 or more)”; for “122 (QCENWVNSTQFEFFWQYK(COCH2)T; thioether 2-18 (inferred)) [compound 122]” it is “B (0.5 or more and less than 0.7)”; for “149 (RCEENYLDPEQYQYFIYFKY; Description of Artificial Sequence: Cyclic peptide) [compound 149]” it is “A (0.7 or more)”.
With “380 (YCPPQLVYLYQYLYK(COCH2)L; thioether 2-15 (inferred)) [compound 380]”, the “Evaluation result” value was “C (0.1 or more and less than 0.5)”.
With “210 (YCEENYLVPEQYQYFIYFK(COCH2)Y; thioether 2-19 (inferred)) [compound 210]”, the “Evaluation result” value is “C (0.1 or more and less than 0.5)”.
Regarding “184 (YCEESYLDPEQYQYFIYFK(COCH2)Y; thioether 2-19 (inferred)) [compound 184]”, the “Evaluation result” value was “C (0.1 or more and less than 0.5)”.
Consider “208 (YCEENYLLPEQYQYFIYFK(COCH2)Y; thioether 2-19 (inferred)) [compound 208]”, for which the “Evaluation result” value was “C (0.1 or more and less than 0.5)”.
For “359 (YCEENYLDPEQYQYFIMFK(COCH2)Y; thioether 2-19) [compound 359]” the value was “A (0.7 or more)”; for “111 (QCDQEFYLALYAWTLRSYK(COCH2)L; thioether 2-19 (inferred)) [compound 111]”, “C (0.1 or more and less than 0.5)”.
For “145 (SCEENYLDPEQYQYFIYFKY; Description of Artificial Sequence: Cyclic peptide) [compound 145]” the value was “A (0.7 or more)”; for “235 (YCEENYLDHEQYQYFIYFK(COCH2)Y; thioether 2-19 (inferred)) [compound 235]”, “A (0.7 or more)”; for “38 (QCSYLYQYVFERYKVTVPK(COCH2)D; thioether 2-19 (inferred)) [compound 38]”, “A (0.7 or more)”.
Turning to “198 (YCEENYYDPEQYQYFIYFK(COCH2)Y; thioether 2-19 (inferred)) [compound 198]”, the “Evaluation result” value was “A (0.7 or more)”.
As for “232 (YCEENYLDDEQYQYFIYFK(COCH2)Y; thioether 2-19 (inferred)) [compound 232]”, the “Evaluation result” value is on record as “A (0.7 or more)”.
On to “172 (YCEYNYLDPEQYQYFIYFK(COCH2)Y; thioether 2-19 (inferred)) [compound 172]”, for which the “Evaluation result” value is listed as “A (0.7 or more)”.
In the case of “319 (YCEENYLDPEQYQYFIYFK(COCH2)E; thioether 2-19 (inferred)) [compound 319]”, the “Evaluation result” value is reported as “A (0.7 or more)”.
For “194 (YCEENHLDPEQYQYFIYFK(COCH2)Y; thioether 2-19 (inferred)) [compound 194]” the value was “A (0.7 or more)”; for “363 (LCYLYQYIYTAK(COCH2)F; thioether 2-12) [compound 363]”, “C (0.1 or more and less than 0.5)”.
For “112 (HCQPEYELYYIYLYLNALK(COCH2)I; thioether 2-19 (inferred)) [compound 112]”, the “Evaluation result” value was “C (0.1 or more and less than 0.5)”.
Take “151 (YCGENYLDPEQYQYFIYFK(COCH2)Y; thioether 2-19 (inferred)) [compound 151]”: the “Evaluation result” value is reported as “A (0.7 or more)”.
In the case of “345 (YCEENYLDPEQYQYFIKFK(COCH2)Y; thioether 2-19) [compound 345]”, the “Evaluation result” value is “A (0.7 or more)”.
As for “335 (KCEENYLDPEQYQYFIYFK(COCH2)Y; thioether 2-19 (inferred)) [compound 335]”, the “Evaluation result” value was “A (0.7 or more)”.
